Reference: publication PMC12785156 (2025)
Numbering of substitutions follows the chain as printed. One block for each binder: values may come before it.

Experiments:
GST-PUB11-ARM = target: T1, GST-PUB11-ARM (Arabidopsis thaliana); experiment: MST
T1 chain: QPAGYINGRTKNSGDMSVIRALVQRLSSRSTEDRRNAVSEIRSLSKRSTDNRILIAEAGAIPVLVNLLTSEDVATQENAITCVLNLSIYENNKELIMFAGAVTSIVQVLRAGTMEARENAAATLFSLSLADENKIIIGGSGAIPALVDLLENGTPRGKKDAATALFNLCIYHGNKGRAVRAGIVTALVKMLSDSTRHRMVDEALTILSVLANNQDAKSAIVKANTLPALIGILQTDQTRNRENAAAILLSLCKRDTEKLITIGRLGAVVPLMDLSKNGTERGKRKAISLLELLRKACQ

GST = experiment: MST

Kd (GST-PUB11-ARM): 1.3 µM
B1: AtHPPD-F428Y (protein)
chain: MGHQNAAVSENQNHDDGAASSPGFKLVGFSKFVRKNPKSDKFKVKRFHHIEFWCGDATNVARRFSWGLGMRFSAKSDLSTGNMVHASYLLTSGDLRFLFTAPYSPSLSAGEIKPTTTASIPSFDHGSCRSFFSSHGLGVRAVAIEVEDAESAFSISVANGAIPSSPPIVLNEAVTIAEVKLYGDVVLRYVSYKAEDTEKSEFLPGFERVEDASSFPLDYGIRRLDHAVGNVPELGPALTYVAGFTGFHQFAEFTADDVGTAESGLNSAVLASNDEMVLLPINEPVHGTKRKSQIQTYLEHNEGAGLQHLALMSEDIFRTLREMRKRSSIGGFDFMPSPPPTYYQNLKKRVGDVLSDDQIKECEELGILVDRDDQGTLLQIFTKPLGDRPTIFIEIIQRVGCMMKDEEGKAYQSGGCGGFGKGNFSELYKSIEEYEKTLEAKQLVG
modifications: GST carrier omitted. Limits not printed: ARM region taken as everything after the U-box (240-314) to the C-terminus

Kd (GST-PUB11-ARM): 46.7 µM
B4: AtHPPD-F419Y (protein)
chain: B1 chain with F419Y, Y428F
modifications: GST carrier omitted. Limits not printed: ARM region taken as everything after the U-box (240-314) to the C-terminus

Kd (GST-PUB11-ARM): 1.75 µM
B6: AtHPPD-F424Y (protein)
chain: B1 chain with F424Y, Y428F
modifications: GST carrier omitted. Limits not printed: ARM region taken as everything after the U-box (240-314) to the C-terminus

Kd (GST-PUB11-ARM): 1.59 µM
B10: AtHPPD-F215Y (protein)
chain: B1 chain with F215Y, Y428F
modifications: GST carrier omitted. Limits not printed: ARM region taken as everything after the U-box (240-314) to the C-terminus

Kd (GST): > 1000 µM
B11: His-AtHPPD (Arabidopsis thaliana 4-hydroxyphenylpyruvate dioxygenase) (enzyme)
chain: B1 chain with Y428F

More lines, now with the values behind:

B2: AtHPPD-F47Y (protein)
chain: B1 chain with F47Y, Y428F
modifications: GST carrier omitted. Limits not printed: ARM region taken as everything after the U-box (240-314) to the C-terminus
Kd (GST-PUB11-ARM): 0.23 µM

B3: AtHPPD-F29Y (protein)
chain: B1 chain with F29Y, Y428F
modifications: GST carrier omitted. Limits not printed: ARM region taken as everything after the U-box (240-314) to the C-terminus
Kd (GST-PUB11-ARM): 1.08 µM

B5: AtHPPD-F52Y (antibody)
chain: B1 chain with F52Y, Y428F
modifications: GST carrier omitted. Limits not printed: ARM region taken as everything after the U-box (240-314) to the C-terminus
Kd (GST-PUB11-ARM): 1.6 µM

B7: AtHPPD-F131Y (protein)
chain: B1 chain with F131Y, Y428F
modifications: GST carrier omitted. Limits not printed: ARM region taken as everything after the U-box (240-314) to the C-terminus
Kd (GST-PUB11-ARM): 1.26 µM

B8: AtHPPD-F202Y (protein)
chain: B1 chain with F202Y, Y428F
modifications: GST carrier omitted. Limits not printed: ARM region taken as everything after the U-box (240-314) to the C-terminus
Kd (GST-PUB11-ARM): 1.65 µM

B9: AtHPPD-F64Y (protein)
chain: B1 chain with F64Y, Y428F
modifications: GST carrier omitted. Limits not printed: ARM region taken as everything after the U-box (240-314) to the C-terminus
Kd (GST-PUB11-ARM): 0.37 µM

B12: AtHPPD-F132Y (protein)
chain: B1 chain with F132Y, Y428F
modifications: GST carrier omitted. Limits not printed: ARM region taken as everything after the U-box (240-314) to the C-terminus
Kd (GST-PUB11-ARM): 2.38 µM
